{"source": "patent US10434170B2", "about": "“Immunoregulatory vaccine” (S-TARGET THERAPEUTICS GMBH, priority 2012, dated 2019)", "molecules": {"B1": {"name": "warhead (conjugate)", "scFv": "EVQLQQSGPELKKPGETVKISCKASGYTFTNYGMNWVKQAPGKGLKWMGWLNTYTGESIYPDDFKGRFAFSSETSASTAYLQINNLKNEDMATYFCARGDYGYDDPLDYWGQGTSVTVSSGGGGSGGGGSGGGGSDIVMTQAAPSVPVTPGESVSISCRSSKSLLHTNGNTYLHWFLQRPGQSPQLLIYRMSVLASGVPDRFSGSGSGTAFTLSISRVEAEDVGVFYCMQHLEYPLTFGAGTKLELKGSISAWSHPQFEKGPEVSALEKEVSALEKEVSALEKEVSALEKEVSALEK"}, "B2": {"name": "ScFV-1-coil: SEQ ID 70: ScFV derived from anti-CD32a mAb IV.3 with StrepTag II and pepE coil (protein)", "scFv": "B1 scFv", "modifications": "ScFV-coil"}, "B3": {"name": "Der p1: house dust mite allergen used as comparator antigen (protein)", "chain": "TNACSINGNAPAEIDLRQMRTVTPIRMQGGCGSCWAFSGVAATESAYLAYRNQSLDLAEQELVDCASQHGCHGDTIPRGIEYIQHNGVVQESYYRYVAREQSCRRPNAQRFGISNYCQIYPPNVNKIREALAQTHSAIAVIIGIKDLDAFRHYDGRTIIQRDNGYQPNYHAVNIVGYSNAQGVDYWIVRNSWDTNWGDNGYGYFAANIDLMMIEEYPYVVIL"}, "B4": {"name": "immunogen 3: SEQ ID 23/74: Der P1 and Der P2 T cell epitopes with His tag, linker and pepK coil (protein)", "chain 1": "HHHHHHYYRYVAREQSCRRPNAQRFGISNYCQIYPPNVNKIREALAQTHSAIAVDLRQMRTVTPIRMQGGCGSCWAFSGVAATESAYLQQYDIKYTWNVPKIAPKSENVVVTVKVMGDDGVLACAIATHAKIRDDAFRHYDGRTIIQRDNGYQPNYHAVNIVGYSNAQGVDYWIVRNSWDTNWHEIKKVLVPGCHGSEPCIIHRGKPFGGGSGGGSCGGKVSALKEKVSALKEKVSALKEKVSALKEKVSALKE", "chain 2": "HHHHHHYYRYVAREQSCRRPNAQRFGISNYCQIYPPNVNKIREALAQTHSAIAVDLRQMRTVTPIRMQGGCGSCWAFSGVAATESAYLQQYDIKYTWNVPKIAPKSENVVVTVKVMGDDGVLACAIATHAKIRDDAFRHYDGRTIIQRDNGYQPNYHAVNIVGYSNAQGVDYWIVRNSWDTNWHEIKKVLVPGCHGSEPCIIHRGKPFGGGSGGGSGGKVSALKEKVSALKEKVSALKEKVSALKEKVSALKE", "modifications": "Immunogen-coil"}, "B5": {"name": "immunogen 5: SEQ ID 30/75: ~29 T cell epitopes of ten Der p allergens with His tag, linkers and pepK coil (protein)", "chain 1": "GVLACAIATHAKIREQERLVKLETVKKSLEQEVRTLHVRIEEVEANALAGGDLRQMRTVTPIRMQGGCGSCWEAHEQQIRIMTTKLKEAEARQQYDIKYTWNVPKIAVNIVGYSNAQGVDYWIVRNSWDTNWYHNPHFIGNRSVITHLMEDLKGELDMRNIQVRGLKQMKRVGDANVKSEDDAFRHYDGRTIIQRDNGYQPNYLDEYWILTAAHCVDGQTVSKLIRSKVLGEKISYYRYVAREQSCRRPNAQRFGISNYCVVVTVKVMGDDELHTYFNVNYTMHYYLNNGATRDILDEYWILTAAHCVAGQTASKLSIRYNSLKHSLFKYRPFKVNELNLEGEFGRELQHKFRLMRNSQMEVEEGGGSHHHHHHGGGSCGGKVSALKEKVSALKEKVSALKEKVSALKEKVSALKE", "chain 2": "B5 chain 1", "modifications": "Immunogen-coil"}}, "key": {"G17RM": {"test_system": "G17RM", "experiment": "Balb/c mice immunized with TYG100 vaccine, serum IgG titre against G17RM", "assay_type": "in vivo, mouse", "settings": "peptide immunized without the warhead, Example 14", "method": "6 Balb/c Mice were immunized 3 times on day 0, day 14 and day 35 with TYG100_1RM or G17_1RM (without warhead) containing rhesus monkey G17 (58.4 μg/shot in 0.5 ml). Two weeks after last immunization, serum was taken and analyzed for the presence of IgG antibodies against G17RM, G17H and G17M (=G17 from the mouse)\n6 Balb/c Mice were immunized 3 times on day 0, day 14 and day 35 with TYG100_2RM containing the first 13 immuno acids of rhesus monkey G17 (66.8 μg/shot in 0.5 ml). Two weeks after last immunization, serum was taken and analyzed for the presence of IgG antibodies against G17RM, G17H and G17M (=G17 from the mouse)"}, "ScFV-1-coil": {"test_system": "ScFV-1-coil", "experiment": "Mice immunized with ScFV-1-coil or warhead, serum IgG1 and IgG2a ELISA against ScFV-1-coil", "assay_type": "in vivo", "settings": "s.c. 2× 35 μg d0, d14, on Alum or in PBS, sera day 28", "method": "(§1) 24 mice (6/group) were immunized s.c. 2× with 35 μg in 150 μl ScFV-1-coil or with warhead (ScFV-1-coil-M362) either formulated on Alum or diluted in PBS. Immunizations were done on d0, and d14, sera were taken on d0 (before immunization) and d28 and analyzed for IgG1 and IgG2a against ScFV-1-coil (indicated as ScFV) and mAb IV.3 by standard ELISA."}, "mAb IV.3": {"test_system": "mAb IV.3", "experiment": "Mice immunized with ScFV-1-coil or warhead, serum IgG1 and IgG2a ELISA against mAb IV.3", "assay_type": "in vivo, mouse", "settings": "s.c. 2× 35 μg d0, d14, on Alum or in PBS, sera day 28", "method": "as §1"}, "[1]": {"test_system": "PBMC of Der p1 sensitized rhesus monkeys", "experiment": "Warhead mediated enhanced antigen presentation, PBMC proliferation (Example 7)", "assay_type": "cell-based, rhesus monkeys (macaca mulatta)", "method": "[…] proliferation (assayed by the incorporation of [^3H]-thymidine) of Rhesus monkey (macaca mulatta) T cells after pre incubation for 30 ‘on ice with respectively warhead and Der p1 or warhead and immunogen 3. After each pre-incubation the cells were washed. (bdl=below detection limit). • Only when the immunogen could interact with the warhead through its coil (immunogen3) T cell proliferation in a dose dependent fashion could be seen. […] As positive control Der p1 is shown to be reactive after overnight incubation (without washing). • Warhead mediated antigen uptake is more efficient than uptake through pinocytosis\nPBMC (100.000/well) of Der p1 sensitized rhesus monkeys (macaca mulatta) were preincubated (30 min on ice) with 1 μg/ml of warhead ScFV and washed 3 times with PBS or preincubated with PBS only and washed three times. Subsequently these cells incubated (30 min on ice) with different concentrations of Immunogen 3 or Der p1 at 3 μg/ml and washed 3 times with PBS after which the cells were culture at 37° C./5% CO2 in the presence of 20 U/ml IL-2 for 48 hours. As a positive control PBMCs (without warhead preincubation) were incubated with 3 μg/ml Der Pb without washing and cultured at 37° C./5% CO2 in the presence of 20 U/ml IL-2. Proliferation was assayed by the incorporation of [^3H]-thymidine (0.5 μCi/well) during the final 18 hrs of a 2-day culture. Cells were harvested for β-scintillation counting (Topcount NXT, Packard, Ramsey, Minn., USA). Results are shown as counts per minute."}, "[2]": {"test_system": "PBMC of Der p1 sensitized rhesus monkeys", "experiment": "Proliferation ([3H]-thymidine) of PBMC of Der p1 sensitized rhesus monkeys (Example 6)", "assay_type": "cell-based, rhesus monkeys (macaca mulatta)", "settings": "3 and 5 μg/ml immunogen 3 vs Der p1, 2-day culture, 20 U/ml IL-2", "method": "(§2) PBMCs from Der p1 sensitized rhesus monkeys (macaca mulatta) were cultured in triplicate with Der p1 or immunogen 3. Proliferation was assayed by the incorporation of [^3H]-thymidine. Results are shown as counts per minute.\n(§3) PBMC (100.000/well) of Der p1 sensitized rhesus monkeys (macaca mulatta) were cultured in triplicate with medium, 3 Der p1 or 3 and 5 μg/ml immunogen 3 at 37° C./5% CO2. in the presence of 20 U/ml IL-2. Proliferation was assayed by the incorporation of [^3H]-thymidine (0.5 μCi/well) during the final 18 hrs of a 2-day culture. Cells were harvested for β-scintillation counting (Topcount NXT, Packard, Ramsey, Minn., USA). Results are shown as counts per minute. In addition from parallel cultures, supernatants were assayed in duplicate for IL-10 and GM-CSF levels using a commercially-available ELISA kit (U-Cytech, Utrecht, The Netherlands) in accordance with the manufacturer's instructions."}, "[3]": {"test_system": "PBMC of Der p1 sensitized rhesus monkeys", "experiment": "IL-10 and GM-CSF ELISA in supernatants of PBMC of Der p1 sensitized rhesus monkeys (Example 6)", "assay_type": "cell-based, rhesus monkeys (macaca mulatta)", "settings": "3 and 5 μg/ml immunogen 3 vs Der p1, parallel cultures", "method": "as §2, §3"}, "[4]": {"test_system": "PBMC of Der p1 sensitized normal donors", "experiment": "Stimulation of human PBMC with immunogen 5-12, IL-10 and IFNg ELISA (Example 10)", "assay_type": "cell-based", "settings": "24 h, 5, 1 or 0.5 μg/ml vs 3 μg/ml Der p1", "method": "PBMCs of healthy human donors were cultured for 24 h in triplicate with Der p1 or immunogen 5. Supernatants were harvested and assayed for IL-10 and […] levels (each indicated as pg/ml; BDL=below detection limit) • Human T cells respond equally well to immunogen 5 as to Der p1, as measured by IL-10 and IFNg induction.\nPBMC (100.000/well) of Der p1 sensitized normal donors were cultured in triplicate with medium, 3 μg/ml Der p1 or 5, 1 or 0.5 μg/ml immunogen 5-12 (Immo5-12) at 37° C./5% CO2 for 24 h. Supernatants were assayed in duplicate for IL-10 and IFNg levels using a commercially-available ELISA kits (eBioscience) in accordance with the manufacturer's instructions."}, "[5]": {"settings": "PBMC preincubated with 1 μg/ml warhead ScFV, washed, incubated 30 min on ice with antigen, cultured 48 hours"}}, "note": "Where no end group is shown, it is not given here. [ ]: non-standard residue; d: D form. pGlu = O=C1CC[C@@H](C(=O)O)N1", "data": [{"molecule": "[pGlu]GPWMEEEEAAYGGGSGGKVSALKEKVSALKEKVSALKEKVSALKEKVSALKE [G17-peptide]", "values": [{"measurement": "response against G17", "setting": "G17RM", "value": "no response"}]}, {"molecule": "B1", "values": [{"measurement": "IgG1 response to ScFV-1-coil", "setting": "ScFV-1-coil", "value": "strong"}, {"measurement": "IgG2a response to ScFV-1-coil", "setting": "ScFV-1-coil", "value": "strong"}, {"measurement": "IgG1 response to mAb IV.3", "setting": "mAb IV.3", "value": "strong"}, {"measurement": "IgG2a response to mAb IV.3", "setting": "mAb IV.3", "value": "strong"}]}, {"molecule": "B2", "values": [{"measurement": "IgG1 response to ScFV-1-coil", "setting": "ScFV-1-coil", "value": "only in the presence of Alum"}, {"measurement": "IgG2a response to ScFV-1-coil", "setting": "ScFV-1-coil", "value": "no IgG2a response"}]}, {"molecule": "B3", "values": [{"measurement": "proliferation of PBMC", "setting": "[1]; [5]", "value": "did not lead to proliferation"}]}, {"molecule": "B4", "values": [{"measurement": "proliferation of PBMC", "setting": "[1]; [5]", "value": "dose dependent stimulation"}, {"measurement": "stimulation relative to positive control", "setting": "[1]; after warhead ScFV preincubation, positive control = PBMC cultured 48 h with 3 μg/ml Der p1 without washing", "value": "even higher than the positive control"}, {"measurement": "proliferation of PBMC", "setting": "[1]; preincubated immunogen in the absence of warhead (data not shown)", "value": "did not lead to proliferation"}, {"measurement": "proliferation, response compared with Der p1", "setting": "[2]", "value": "non-significant difference"}, {"measurement": "cytokine production (IL-10 and GM-CSF), response compared with Der p1", "setting": "[3]", "value": "non-significant difference"}]}, {"molecule": "B5", "values": [{"measurement": "IFNg induction, response compared with Der p1", "setting": "[4]", "value": "equally well"}, {"measurement": "IL-10 induction, response compared with Der p1", "setting": "[4]", "value": "equally well"}]}]}
